Test results as given in article doi:10.1101/2023.07.08.548221.

Biological target: strep-CsoS1A (hexameric shell protein CsoS1A) (Halothiobacillus neapolitanus) (UniProt P45689)
Assay: turbidity

UniProt P45689, sequence (P45689 whole entry): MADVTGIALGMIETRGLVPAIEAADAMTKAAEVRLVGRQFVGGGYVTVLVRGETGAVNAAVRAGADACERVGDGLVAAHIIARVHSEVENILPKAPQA

His-CsoS2B (full-length CsoS2, long form) (from UniProt O85041-1 1-869) (natural protein)
fold turbidity with CsoS1A against wtMR: 5 fold
